This is an account of results in the supplement of paper PMC11316812.

± gives the standard deviation of the averaged measurements.

One data set deals with hTERT-HMEC. Put plainly: percentage of EdU-negative (G0-arrested) nuclei per well, 72 h; higher = more G0 arrest. Particulars: reference: sequence is the full UniProt precursor, the tested protein was the secreted form or ectodomain.
A further data set has as its system MCF7. The data set is described as above. Particulars: reference: sequence is the full UniProt precursor, the tested protein was the secreted form or ectodomain.
Where [1] appears, read: protein concentration 0.0225 µM.
[2] abbreviates: protein concentration 0.0357143 µM.
Where [3] appears, read: protein concentration 0.357143 µM.
Where [4] appears, read: protein concentration 0.013725 µM.
Where [5] appears, read: protein concentration 0.13725 µM.
The mark [6] stands for this setting: protein concentration 0.01325 µM.
The mark [7] stands for this setting: protein concentration 0.1325 µM.
The mark [8] stands for this setting: protein concentration 0.00775 µM.
Setting [9] is: protein concentration 0.0775 µM.
Setting [10] is: protein concentration 0.0128525 µM.
[11] abbreviates: protein concentration 0.128525 µM.
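Further: secreted proteins added to cultured cells, EdU pulse at the end, nuclei found by Hoechst imaging, EdU status from nuclear versus surrounding ring intensity ratio, PBS as neutral control.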

For the sequence “MGSRGQGLLLAYCLLLAFASGLVLSRVPHVQGEQQEWEGTEELPSPPDHAERAEEQHEKYRPSQDQGLPASRCLRCCDPGTSMYPATAVPQINITILKGEKGDRGDRGLQGKYGKTGSAGARGHTGPKGQKGSMGAPGERCKSHYAAFSVGRKKPMHSNHYYQTVIFDTEFVNLYDHFNMFTGKFYCYVPGLYFFSLNVHTWNQKETYLHIMKNEEEVVILFAQVGDRSIMQSQSLMLELREQDQVWVRLYKGERENAIFSEELDTYITFSGYLVKHATEP [Q9BXJ1]”, the “percentage of EdU-negative” value stood at 4.31 ± 0.1% with hTERT-HMEC (setting [1]), 4.49 ± 0.49% with hTERT-HMEC (protein concentration 0.225 µM), 24.69 ± 0.17% in the data set with MCF7 (setting [1]) and 23.7 ± 2.1% in the data set on MCF7 (protein concentration 0.225 µM).

Turning to “MKLQCVSLWLLGTILILCSVDNHGLRRCLISTDMHHIEESFQEIKRAIQAKDTFPNVTILSTLETLQIIKPLDVCCVTKNLLAFYVDRVFKDHQEPNPKILRKISSIANSFLYMQKTLRQCQEQRQCHCRQEATNATRVIHDNYDQLEVHAAAIKSLGELDVFLAWINKNHEVMFSA [Q9UHD0]”, the “percentage of EdU-negative” value in the data set on hTERT-HMEC (setting [2]) stood at 5.09 ± 0.068%; with hTERT-HMEC (setting [3]), 6.97 ± 1.1%; with MCF7 (setting [2]), 24.3 ± 3%; in the data set on MCF7 (setting [3]), 27.41 ± 0.059%.

Consider “MYSAPSACTCLCLHFLLLCFQVQVLVAEENVDFRIHVENQTRARDDVSRKQLRLYQLYSRTSGKHIQVLGRRISARGEDGDKYAQLLVETDTFGSQVRIKGKETEFYLCMNRKGKLVGKPDGTSKECVFIEKVLENNYTALMSAKYSGWYVGFTKKGRPRKGPKTRENQQDVHFMKRYPKGQPELQKPFKYTTVTKRSRRIRPTHPA”, for which the “percentage of EdU-negative” value was 4.7 ± 1.1% in the data set with hTERT-HMEC (setting [4]), 5.41 ± 0.5% in the data set with hTERT-HMEC (setting [5]), 24.26 ± 0.046% in the data set with MCF7 (setting [4]) and 22.8 ± 0.92% in the data set with MCF7 (setting [5]).

For the sequence “MTPPKLRASLSPSLLLLLSGCLLAAARREKGAASNVAEPVPGPTGGSSGRFLSPEQHACSWQLLLPAPEAAAGSELALRCQSPDGARHQCAYRGHPERCAAYAARRAHFWKQVLGGLRKKRRPCHDPAPLQARLCAGKKGHGAELRLVPRASPPARPTVAGFAGESKPRARNRGRTRERASGPAAGTPPPQSAPPKENPSERKTNEGKRKAALVPNEERPMGTGPDPDGLDGNAELTETYCAEKWHSLCNFFVNFWNG [Q8TAT2]”, the “percentage of EdU-negative” value with hTERT-HMEC (setting [6]) was 4.87 ± 0.1%; with hTERT-HMEC (setting [7]), 6.22 ± 0.9%; in the data set with MCF7 (setting [6]), 25.1 ± 0.15%; with MCF7 (setting [7]), 27.7 ± 1.3%.

For “MTPSRLPWLLSWVSATAWRAARSPLLCHSLRKTSSSQGGKSELVKQSLKKPKLPEGRFDAPEDSHLEKEPLEKFPDDVNPVTKEKGGPRGPEPTRYGDWERKGRCIDF [Q5VUM1]”, the “percentage of EdU-negative” value is 5.46 ± 0.82% in the data set with hTERT-HMEC (setting [1]), 5.79 ± 0.17% in the data set on hTERT-HMEC (protein concentration 0.225 µM), 28 ± 2.2% with MCF7 (setting [1]) and 25.4 ± 1.5% with MCF7 (protein concentration 0.225 µM).

Consider “MRRPAAVPLLLLLCFGSQRAKAATACGRPRMLNRMVGGQDTQEGEWPWQVSIQRNGSHFCGGSLIAEQWVLTAAHCFRNTSETSLYQVLLGARQLVQPGPHAMYARVRQVESNPLYQGTASSADVALVELEAPVPFTNYILPVCLPDPSVIFETGMNCWVTGWGSPSEEDLLPEPRILQKLAVPIIDTPKCNLLYSKDTEFGYQPKTIKNDMLCAGFEEGKKDACKGDSGGPLVCLVGQSWLQAGVISWGEGCARQNRPGVYIRVTAHHNWIHRIIPKLQFQPARLGGQK [Q9BQR3]”, for which the “percentage of EdU-negative” value in the data set on hTERT-HMEC (setting [8]) amounted to 4.44 ± 0.22%; in the data set with hTERT-HMEC (setting [9]), 6.65 ± 0.73%; with MCF7 (setting [8]), 25.18 ± 0.16%; in the data set with MCF7 (setting [9]), 26.7 ± 2.6%.

Take “MAPRRVRSFLRGLPALLLLLLFLGPWPAASHGGKYSREKNQPKPSPKRESGEEFRMEKLNQLWEKAQRLHLPPVRLAELHADLKIQERDELAWKKLKLDGLDEDGEKEARLIRNLNVILAKYGLDGKKDARQVTSNSLSGTQEDGLDDPRLEKLWHKAKTSGKFSGEELDKLWREFLHHKEKVHEYNVLLETLSRTEEIHENVISPSDLSDIKGSVLHSRHTELKEKLRSINQGLDRLRRVSHQGYSTEAEFEEPRVIDLWDLAQSANLTDKELEAFREELKHFEAKIEKHNHYQKQLEIAHEKLRHAESVGDGERVSRSREKHALLEGRTKELGYTVKKHLQDLSGRISRARHNEL”: the “percentage of EdU-negative” value with hTERT-HMEC (setting [10]) was determined as 4.97 ± 0.51%; with hTERT-HMEC (setting [11]), 6.45 ± 0.82%; in the data set on MCF7 (setting [10]), 24.3 ± 0.53%; in the data set on MCF7 (setting [11]), 26.4 ± 1.4%.

For the sequence “MKMRFLGLVVCLVLWTLHSEGSGGKLTAVDPETNMNVSEIISYWGFPSEEYLVETEDGYILCLNRIPHGRKNHSDKGPKPVVFLQHGLLADSSNWVTNLANSSLGFILADAGFDVWMGNSRGNTWSRKHKTLSVSQDEFWAFSYDEMAKYDLPASINFILNKTGQEQVYYVGHSQGTTIGFIAFSQIPELAKRIKMFFALGPVASVAFCTSPMAKLGRLPDHLIKDLFGDKEFLPQSAFLKWLGTHVCTHVILKELCGNLCFLLCGFNERNLNMSRVDVYTTHSPAGTSVQNMLHWSQAVKFQKFQAFDWGSSAKNYFHYNQSYPPTYNVKDMLVPTAVWSGGHDWLADVYDVNILLTQITNLVFHESIPEWEHLDFIWGLDAPWRLYNKIINLMRKYQ”, the “percentage of EdU-negative” value with hTERT-HMEC (setting [1]) stood at 4.11 ± 0.31%; with hTERT-HMEC (protein concentration 0.225 µM) it was 5.43 ± 0.3%; in the data set on MCF7 (setting [1]), 25.12 ± 0.15%; in the data set on MCF7 (protein concentration 0.225 µM), 27.7 ± 0.37%.
